Data: publication PMC5590881, “Xenon for tunnelling analysis of the efflux pump component OprN” (PLoS ONE, 2017)

Molecular target: the molecule itself
Test: crystal structure; OprN-wt crystals and OprN-Xe crystals (OprN-wt crystals under 2 MPa xenon), space group I4, T = 100 K; grown at 18°C in 100 mM sodium acetate pH 5.4, 0.8–1.1 M sodium formate, 9–11% PEG 4000; protein in 0.9% β-OG

B1: OprN, the outer membrane channel of the MexEF efflux pump from Pseudomonas aeruginosa (natural protein)
chain: CTVGPDYRTPDTAAAKIDATASKPYDRSRFESLWWKQFDDPTLNQLVEQSLSGNRDLRVAFARLRAARALRDDVANDRFPVVTSRASADIGKGQQPGVTEDRVNSERYDLGLDSAWELDLFGRIRRQLESSDALSEAAEADLQQLQVSLIAELVDAYGQLRGAQLREKIALSNLENQKESRQLTEQLRDAGVGAELDVLRADARLAATAASVPQLQAEAERARHRIATLLGQRPEELTVDLSPRDLPAITKALPIGDPGELLRRRPDIRAAERRLAASTADVGVATADLFPRVSLSGFLGFTAGRGSQIGSSAARAWSVGPSISWAAFDLGSVRARLRGAKADADAALASYEQQVLLALEESANAFSDYGKRQERLVSLVRQSEASRAAAQQAAIRYREGTTDFLVLLDAEREQLSAEDAQAQAEVELYRGIVAIYRSLGGGWQPSA
modifications: palmitoylation at the N-terminus Cys residue (dual acylation observed at the same cysteine)
notes: OprN, outer membrane factor of the MexEF-OprN efflux pump, Pseudomonas aeruginosa; the oprN gene was cloned; the chain in the crystal begins at the acylated Cys; 1341 amino acids built in the trimer; Homotrimer in the crystal (chains A, B, C); also called OprN-wt; OprN-Xe; source: C43-ΔacrB strain, pBAD-33, purified from the outer membrane (DDM, β-OG; Ni-NTA, Superose 6 SEC); not shown: His6, …
In the case of B1, the “stoichiometry N” value is reported as 3.
